In article doi:10.1101/2023.03.14.530545 (bioRxiv, 2023):

B1: 6xHis-CnTps1 (full-length Cryptococcus neoformans trehalose-6-phosphate synthase) (enzyme, UniProt Q6IVK9 1-670, looked up)
chain: MTTMSNDIPNSPTSTSFTGTFSPAATAANTAANARTSDAPSPTTSSSGPKLETSKEQRLIVVSNRLPVTISKDDNGEYHFKMSSGGLVSALSGCKKTMSFTWIGWPGKDIPMQDRETVNRRLLDEYNCYPVYLSDELADSHYNGSFSNSILWPLFHYHPGEMNFDAAHWLAYREANMRFADVVSSLVQAGDMVWVQDYHLMLLPMLLRSMITGESAQGEMVRQELGRVKEGVDDTVVKEVLKMGPGVAQAEDEGVEMLDDVEEEGGEMDVKSSPKRPHYARGMSTFQKQELVAKEKGKEGIRIGFFLHTPFPSSEIYRILPVRREILLGVLQCDLIGFHTYDYARHFLSSCTRILGLETQPNGIEFDGRYCQVGTFPIGIDPNQFIEGLQKESIVKRLRSLEARFEGVKVIIGVDRLDYIKGIPQKLQALETFLTQHPEWIGKVVLVQLAIPSRQDVEEYQDLRACVNELVGRINGRFGTVESVPIHYMHKSVPFEELTAMYALADACLVTSTRDGMNLVAYEYISSQAERHGSMILSEFAGAAQSFNGSLLINPWDVQSTADAINQALTLSPQQRKTNWQKLFNYVSKYTAEAWGVSFVNELNRLSGQRPSGPTGLAGRRKSGSLSRTSSKASIQRRKSSQSGIVTGLGAAAGAAVNWAQAQVQGGSQT

Key:
[1] = molecular target: CnTps1 ΔIDD (Cryptococcus neoformans var. grubii strain H99 | Candida albicans) (UniProt Q6IVK9); assay: SEC
cryo-EM structure = molecular target: the molecule itself; assay: cryo-EM structure

Row | Molecule | stoichiometry N [1] | stoichiometry N (cryo-EM structure)
1 | CnTps1 ΔIDD (from UniProt Q6IVK9 1-208; Q6IVK9 301-669) (enzyme) | 4 | –
2 | B1 | – | 4
